Experimental data from patent US20220213151A1.
Like-named read-outs stand apart in the source and are kept apart here.

Legend:
[1] = target: rhu EGFR (Fc) (human (rhu)) (UniProt P00533)
[2] = target: rhu EGFR (Fc) (human (rhu)) (UniProt P00533); experiment: pH 6

With “A-dmDT390-EGF (other; other documents disagree on this pair)” the Kd [1] was 0.00581 µM and the Kd [2] was 0.102 µM.
